What was measured:
rats = assay: Toxicity studies in rats: ADA and PD effects; format: in vivo
From the text: (§1) The single- and repeat-dose toxicity of BMS-986326 were characterized in a series of studies in rats for up to 2 weeks and in monkeys up to 12 weeks using selected dosing frequencies. Pivotal good laboratory practice (GLP) repeat-dose studies in both species employed SC administration of BMS-986326 and consisted of two 2-week studies in rats using differing dose frequencies (once weekly [QW] vs twice weekly [2QW]), a 2-week once weekly dosing study in monkeys, and a 12-week (once every 3 week, Q3W) dosing study in monkeys. In addition, single-dose exploratory studies were initially completed in both rats and monkeys to explore the tolerability of BMS-986326, and a single-dose GLP IV toxicity and cardiovascular safety study was also completed in telemeterized monkeys using IV dosing to support IV administration in the first-in-human (FIH) single-ascending dose (SAD) study (IM034001).
(§2) In rats, BMS-986326 was noted to be highly immunogenic, with ADA formation occurring in 84% of BMS-986326-treated rats. In general, the presence of ADA was associated with reduced exposure and loss of PD activity, but was not associated with toxicity.
Intended and unintended PD effects occurred in a dose-dependent manner across all doses of each toxicity study and were generally more pronounced in monkeys than in rats. As an IL-2R agonist, BMS-986326 induced maximal phosphorylation of STAT5 in Treg cells (72% to 95%) across all doses in rats and monkeys, increased Treg cells (up to 63× in monkeys) and/or CD25 expression on CD4 Tregs (up to 4.5× in rats), and raised serum levels of IL-10 (up to 2× in rats and 87× in monkeys). In addition to the desired pharmacologic effects on Tregs, BMS-986326 also led to unintended effects including dose-dependent activation of conventional CD4 and CD8 T cell populations and NK cells, with concomitant elevation of serum IL-5, MCP-1, and perforin. At higher doses of BMS-986326 when dosed weekly in monkeys, increases in B cells (1.6×) and other inflammatory cytokines such as […] (7.9×), IL-1Ra (49×), and IL-6 (5.1×) were also noted. […]

[1] = test system: pSTAT5 in Tregs, Tconv, CD8 cells and NK cells; assay: Whole blood pSTAT5 assay, selectivity across cell types; format: cell-based
monkeys = assay: Toxicity studies in monkeys: ADA and PD effects; format: in vivo
From the text: as §1, §2
Intended and unintended PD effects occurred in a dose-dependent manner across all doses of each toxicity study and were generally more pronounced in monkeys than in rats. As an IL-2R agonist, BMS-986326 induced maximal phosphorylation of STAT5 in Treg cells (72% to 95%) across all doses in rats and monkeys, increased Treg cells (up to 63× in monkeys) and/or CD25 expression on CD4 Tregs (up to 4.5× in rats), and raised serum levels of IL-10 (up to 2× in rats and 87× in monkeys). In addition to the desired pharmacologic effects on Tregs, BMS-986326 also led to unintended effects including dose-dependent activation of conventional CD4 and CD8 T cell populations and NK cells, with concomitant elevation of serum IL-5, MCP-1, and perforin. At higher doses of BMS-986326 when dosed weekly in monkeys, increases in B cells (1.6×) and other inflammatory cytokines such as […] (7.9×), IL-1Ra (49×), and IL-6 (5.1×) were also noted. These inflammatory cytokines were not elevated when lower doses of BMS-986326 were given less frequently (Q3W) in the 12-week monkey toxicity study.

[2] = Linker-cleavage in human serum in vitro (LC-MS/MS); format: in vitro ADME; conditions: up to 72 hours
Method: Various in vitro and in vivo studies were conducted to characterize the PK of BMS-986326 in the nonclinical setting.

BMS-986326: recombinant fusion protein of human IL2 and extracellular domain of human CD25, (GGGS)3 linker, non-covalent self-blocking homodimer
ADA formation, % of treated rats (rats): 84% | increase in CD25 expression on CD4 Tregs (rats): up to 4.5 × | increase in serum levels of IL-10 (rats): up to 2 × | % of Tregs pSTAT5+ ([1]; highest concentration of drug): > 90% | % pSTAT5+ cells in Tconv, CD8 cells and NK cells ([1]; highest concentration of drug at 71 nM): < 50% | increase in Treg cells (monkeys): up to 63 × | increase in serum levels of IL-10 (monkeys): ≤ 87 × | increase in B cells (monkeys; higher doses dosed weekly): 1.6 × | increase in IFN-7 (monkeys; higher doses dosed weekly): 7.9 × | increase in IL-1Ra (monkeys; higher doses dosed weekly): 49 × | increase in IL-6 (monkeys; higher doses dosed weekly): 5.1 × | ADA development (monkeys; pivotal toxicity studies): generally did not develop | linker-cleavage [2]: did not show signs of linker-cleavage

Reference: patent US20240325495A1, “FUSION PROTEINS FOR THE TREATMENT OF DISEASE” (Bristol-Myers Squibb Company, priority 2020, published 2024)
